Measured values published in publication PMC2636890.

Assays:
[1] = biological target: SR-BI-Short, a shorter isoform of SR-BI produced by alternative splicing that removes 100 amino acids of the ectodomain (human) (UniProt Q8WTV0)
[2] = biological target: soluble recombinant form of HCV E2 glycoprotein (sE2), derived from H77-E2, harbouring a His-tag (UniProt P27958); assay: flow cytometry on cells (sE2 binding); details: BRL3A cells expressing only the indicated SR-BI mutant; sE2-containing medium vs. sE2-free medium; mean±SD, n = 3; parent: est. 100; read off a plot

Sequence of UniProt Q8WTV0 (Q8WTV0 other isoform, or with tags, fused parts or gaps): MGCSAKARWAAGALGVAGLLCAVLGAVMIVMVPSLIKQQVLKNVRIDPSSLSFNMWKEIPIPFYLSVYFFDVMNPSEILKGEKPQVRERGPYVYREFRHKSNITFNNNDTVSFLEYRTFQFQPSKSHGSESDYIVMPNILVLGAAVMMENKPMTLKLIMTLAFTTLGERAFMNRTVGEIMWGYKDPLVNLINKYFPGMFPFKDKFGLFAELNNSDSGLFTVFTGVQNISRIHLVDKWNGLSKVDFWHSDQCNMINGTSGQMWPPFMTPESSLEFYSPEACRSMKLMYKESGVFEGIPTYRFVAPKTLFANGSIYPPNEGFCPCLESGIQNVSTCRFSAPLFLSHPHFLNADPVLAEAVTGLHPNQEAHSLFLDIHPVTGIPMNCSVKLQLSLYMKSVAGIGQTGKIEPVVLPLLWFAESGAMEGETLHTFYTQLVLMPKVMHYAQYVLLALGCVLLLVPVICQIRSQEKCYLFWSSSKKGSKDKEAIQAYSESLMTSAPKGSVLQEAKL

With “soluble recombinant form of HCV E2 glycoprotein (sE2), derived from H77-E2, harbouring a His-tag (from UniProt P27958 384-661) (domain or fragment)” the entry of HCVpp (H77 E1E2) into BRL3A-CD81-CLDN1 cells expressing the SR-BI form, fold reduction against wt SR-BI [1] was > 10 fold.
In the case of “human scavenger receptor class B type I (SR-BI), wild type (from UniProt Q8WTV0-2) SES”, the percent of parent (% of wt SR-BI (set to 100)) [2] is reported as 100.
